Earlier results in patent US20110015134A1, “Method of treatment for early stage cancer” (priority 2007, published 2011).

Experiments:
[1] = test system: wound healing associated tumor growth; details: reported in the literature
[2] = in vivo
[3] = at any level, at any concentration
[4] = in vivo; remark: listed apart in the source

## COc1ccc2c(c1)c(CC(=O)O)c(C)n2C(=O)c1ccc(Cl)cc1 [Indomethacin]
[1]
  prevention of wound healing associated / surgery induced tumor growth: effective in preventing wound healing associated tumor growth

## O=S1(=O)CCN(CN2CCS(=O)(=O)NC2)CN1 [Taurolidine]
[1]
  prevention of wound healing associated / surgery induced tumor growth: can prevent surgery induced tumor growth

## Avastin: angiogenesis inhibitor that inhibits VEGF
[2]
  dose limiting toxicity: some dose limiting toxicity mainly hypertension

## Endostatin
[3]
  toxicity: never been shown to exhibit toxicity at any level at any concentration
[4]
  half-life: half-life is short
